# In US20250092135A1 (NANJING LEADS BIOLABS, published 2025):
# B1: anti-MUC16 antibody 776.1(C33S) (antibody, human IgG1, kappa, L234A L235A, V domains shown)
# VH: EVQLQQSGPELVKPGASVKISCKASGYTFTDYNIHWVKQSHGKILEWIGYIYPYNGVSDYNQNFKSKATLIVDNSSNTAYMELRSLTSEDSAVYYCARWDFGSGYYFDYWGQGTTLTVSS
# VL: QIVLSQSPAILFASPGETVTMTCRASSSVIYMSWNQQKPGSSPKPWIYGTSTLASGVPTRFSGSGSGTSYSLTISRVEAEDAATYYCQQWSSNPFTFGSGTKLEIKR
# Molecular target: T1, rhesus monkey MUC16 protein (ECT_TM RhMuc16) on 293T cells (rhesus monkey)
# T1 chain: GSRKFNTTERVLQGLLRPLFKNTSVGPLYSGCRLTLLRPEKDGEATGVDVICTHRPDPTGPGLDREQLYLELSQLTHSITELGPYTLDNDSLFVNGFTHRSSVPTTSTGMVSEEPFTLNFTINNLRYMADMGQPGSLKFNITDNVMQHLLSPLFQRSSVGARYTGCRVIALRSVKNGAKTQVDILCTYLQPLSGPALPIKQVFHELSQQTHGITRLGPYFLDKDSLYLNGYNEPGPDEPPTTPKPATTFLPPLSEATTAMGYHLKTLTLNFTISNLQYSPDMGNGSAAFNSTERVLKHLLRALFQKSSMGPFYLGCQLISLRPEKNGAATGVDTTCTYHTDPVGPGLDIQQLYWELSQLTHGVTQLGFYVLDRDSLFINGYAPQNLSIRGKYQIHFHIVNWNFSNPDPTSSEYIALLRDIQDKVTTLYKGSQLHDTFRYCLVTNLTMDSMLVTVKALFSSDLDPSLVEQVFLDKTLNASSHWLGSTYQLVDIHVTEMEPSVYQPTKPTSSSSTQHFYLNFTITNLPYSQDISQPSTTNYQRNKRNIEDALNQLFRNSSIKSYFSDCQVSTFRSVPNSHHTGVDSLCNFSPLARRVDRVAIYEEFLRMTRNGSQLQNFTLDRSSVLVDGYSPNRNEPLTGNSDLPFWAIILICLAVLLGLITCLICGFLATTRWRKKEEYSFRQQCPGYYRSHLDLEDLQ
# Test: flow cytometry, 293T/rhesus MUC16 cells, PE anti-human IgG Fc secondary, MFI; EC50 table under the plot, unit from the axis Conc.(nM)
# Method: The serially diluted anti-human MUC16 antibodies (at an initial concentration of 200 nM, 4-fold dilution, 8 points in total) obtained in the present application were added to the cells, and the cells were incubated at 4° C. for 30 min. The cells were washed twice with PBS, and then fluorescent secondary antibody R-PE-conjugated AffiniPure Goat Anti-Human IgG, Fcγ Fragment Specific (Jackson ImmunoResearch, Cat #109-116-098) was added. The cells were incubated at 4° C. for 30 min. The cells were washed twice with PBS and then resuspended, and finally, fluorescence signals were detected using a BD Accuri C5 (BD Bioscience) flow cytometer.
binder,measurement,value
B1,EC50,5.01 nM
